From article PMC12608037

Key:
[1] = system: YihW (CsqR) K-12 MG1655 (Escherichia coli K-12 MG1655); test: EMSA; conditions: 50 mM Tris-Cl (pH not stated), 100 mM KCl, 50% glycerol, 1 mM EDTA (1x); 0.5 pmol DNA, 2-24 pmol YihW; 30 or 37 C, 30 min; 5% PAGE in 1x TBE; scale: protein:DNA molar ratio for complete binding
[2] = system: YihW (CsqR) Nissle 1917 (Escherichia coli Nissle 1917); test: EMSA; conditions: 50 mM Tris-Cl (pH not stated), 100 mM KCl, 50% glycerol, 1 mM EDTA (1x), 0.5 pmol DNA, 2-24 pmol YihW, 30 or 37 C, 30 min, 5% PAGE in 1x TBE, scale: protein:DNA molar ratio for complete binding

Substance	binding signal [1]	binding signal ([2]; 30 C, equal efficiency to Nissle fragment)	binding signal ([2]; 30 C)	binding signal ([2]; 37 C, some DNA free at 48x, weaker than K-12 fragment)
yihU/V intergenic region, K-12 MG1655	16	24	–	–
yihU/V intergenic region, Nissle 1917	16	–	24	> 48
